{
  "source": "patent US20140023585A1",
  "about": "“177 LUTETIUM-LABELED BOMBESIN ANALOGS FOR RADIOTHERAPY” (UNIVERSITATSSPITAL BASEL, priority 2010, published 2014)",
  "key": {"PC-3 tumors [1]": {"test_system": "PC-3 tumors", "experiment": "in vivo", "conditions": "i.v.", "experimental": "Biodistribution was investigated in NMRI nude mice bearing subcutaneous PC-3 tumors in the right hind limb at different time-points. Body weight of the male mice was approx. 30 g, 3 animals were investigated per time-point. After injecting an intravenous dose into the tail vein, mice were sacrificed at indicated time points and dissected organs were analyzed by radioactive counting. An administration dose of 100 μL was applied per animal with a mean activity of 86 kBq.\nAt indicated time points urine and feces were quantitatively collected. At the same time points, animals were sacrificed and exsanguinations under isoflurane anesthesia and the following organs and tissues were removed for measurement of [^177Lu] using the gamma-counter: spleen, liver, gallbladder, kidneys, lung, femur, heart, brain, fat, thyroid, muscle, skin, blood, tail, stomach (without content), prostate, intestine (with content), pancreas, adrenals, and the remaining body (designated as carcass).\nWhole organs and tissues or aliquots were weighted and measured in a gamma-counter for radioactivity. In order to get the amount of total radioactivity administered in each animal (=100%) 3 aliquots (100 μL each) of the injected solution were always measured in parallel. The results of the biodistribution and excretion are reported as percent of injected dose per gram of tissue (% ID/g) and percent of injected dose per organ (% ID), respectively. All data are given as mean value±standard deviation, which were calculated by using all animals per time and sample."}, "[2]": {"experiment": "Toxicity study, same therapy protocol in CD1 mice", "format": "in vivo", "experimental": "(§1) A first therapy study was conducted on 25 nude mice (15-20 g) subcutaneously implanted with PC-3 ([…]). For toxicity study the same therapy protocol was applied to 25 CD1 mice. Thirteen days after implantation the mice were randomly divided in 5 groups and treated as described below: • 1. […] 200 pmol of ^natcompound 2 • 5. PBS"}, "PC-3 tumors [3]": {"test_system": "PC-3 tumors", "experiment": "Radionuclide therapy study with repeated injections", "format": "in vivo, nude mice", "conditions": "end of the study, compared to controls", "experimental": "as §1\nAccording to the protocol agreed upon, three injections per week (days 0, 2, 4) were done and the procedure was repeated (days 14, 16, 18) after one pause week. Based on the biodistribution data of compound 3 with ^111In we observed that injections after 48 h would maintain stable the uptake in the tumor. The pause week is, in our opinion, important for the safety of the animals. The mice were periodically monitored by measuring tumor size and body mass. Animals with loss of >20% of their original weight or with tumor size >20 mm in diameter were sacrificed. Tumor sizes were determined by caliper measurements in two dimensions and tumor volumes were calculated assuming an elliptical shape."}},
  "data": [
    {"smiles": "CC(C)C[C@H](NC(=O)C[C@H](O)[C@H](CC(C)C)NC(=O)[C@H](Cc1c[nH]cn1)NC(=O)CNC(=O)[C@@H](NC(=O)[C@H](C)NC(=O)[C@H](Cc1c[nH]c2ccccc12)NC(=O)[C@H](CCC(N)=O)NC(=O)[C@@H](Cc1ccccc1)NC(=O)CN1CCC(NC(=O)CN2CCN(CC(=O)O)CCN(CC(=O)O)CCN(CC(=O)O)CC2)CC1)C(C)C)C(N)=O", "note": "[compound 2, [^177Lu]-DOTA-4-amino-1-carboxymethylpiperidine-D-Phe-Gln-Trp-Ala-Val-Gly-His-Sta-Leu-NH2, metal not drawn]", "values": [
      {"measurement": "% ID Gallbladder", "setting": "PC-3 tumors [1]; 1.0 h p.a.", "result": 0.000, "unit": "% ID"},
      {"measurement": "% ID/g Kidney", "setting": "PC-3 tumors [1]; 1.0 h p.a.", "result": "1.72 (±0.45) % ID/g"},
      {"measurement": "% ID/g Tumor", "setting": "PC-3 tumors [1]; 1.0 h p.a.", "result": "5.60 (±1.66) % ID/g"},
      {"measurement": "% ID Gallbladder", "setting": "PC-3 tumors [1]; 4.0 h p.a.", "result": 0.000, "unit": "% ID"},
      {"measurement": "% ID/g Kidney", "setting": "PC-3 tumors [1]; 24.0 h p.a.", "result": "0.57 (±0.21) % ID/g"},
      {"measurement": "% ID/g Liver", "setting": "PC-3 tumors [1]; 24.0 h p.a.", "result": "0.05 (±0.01) % ID/g"},
      {"measurement": "% ID/g Tumor", "setting": "PC-3 tumors [1]; 24.0 h p.a.", "result": "6.06 (±1.53) % ID/g"},
      {"measurement": "survival and health of CD1 animals", "setting": "[2]", "result": "alive and look healthy"},
      {"measurement": "body weight of CD1 animals", "setting": "[2]; stabilized after 5-6 months", "result": "increased"},
      {"measurement": "histopathological changes", "setting": "PC-3 tumors [3]", "result": "no compound (radio-peptide) related histopathological changes"}
    ]}
  ]
}
